This passage reports stoichiometry N results from PMC8617193.

The target in the assay is NFS1 as crystallised in the (NIAU2)2 complexes (human). Nature of the assay: crystal structure; (NIAU2)2 complexes with wild-type or mutant ISCU2, 16-18 mg/ml, sitting drop, 0.1 M MES pH 6.5, 22.5% PEG-400, 15 °C; space group P41212; 1.57-1.95 Å.

The substance “NFS1 as crystallised in the (NIAU2)2 complexes (enzyme)” registered a stoichiometry N of 2.

Usually stoichiometry N stands for a count of units in the complex or per binding partner.
